Experimental data from the supplement of paper PMC9732359.
± gives the uncertainty stated by the source.

Experiment: protein stability index of a GFP-peptide fusion (yeast GPS) (PSI 1-4); higher = more stable; sorted into four equal gates, so the index is relative within each strain
In short: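 For each peptide, the protein stability index sums the read frequency in every gate after multiplying it by the gate number. Read frequencies came from plasmids that were PCR-amplified from each gate and Illumina-sequenced, with reads assigned to strains by barcodes. The gates were four equal bins of GFP/Cherry fluorescence ratio applied to mid-log yeast in leucine-free medium carrying a pooled library of tiled 17-residue yeast protein peptides fused downstream of GFP on a Cherry-expressing plasmid.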

| Sequence | protein stability index (doa10∆) | protein stability index (pdr5∆) | protein stability index (san1∆) | protein stability index (ubr1∆) |
| --- | --- | --- | --- | --- |
| GKGLQSAIDVLDPLTKD [RPN2] | 2.28 ± 0.069 | 2.56 ± 0.079 | 2.44 ± 0.1 | 2.81 ± 0.069 |
| GKHSQEQNSSSAKPSQI [SIR4] | 2.97 ± 0.067 | 3.24 ± 0.072 | 3.02 ± 0.06 | 3.24 ± 0.052 |
| GKIDEAADILCELQVET [RPN5] | 3.06 ± 0.12 | 3.25 ± 0.15 | 3.1 ± 0.061 | 3.46 ± 0.095 |
| GKIQENIPFWKHVGFEL [SRP72] | 2.65 ± 0.053 | 2.59 ± 0.055 | 2.37 ± 0.072 | 2.57 ± 0.035 |
| GKLAKPRQLHNTHWGLV [RPB2] | 2.85 ± 0.082 | 2.84 ± 0.071 | 2.61 ± 0.068 | 2.94 ± 0.092 |
| GKMIELISGKAGVLNGT [RET1] | 2.62 ± 0.079 | 2.98 ± 0.087 | 2.52 ± 0.24 | 2.6 ± 0.11 |
| GKTNIALLTVLKALSHH [BRR2] | 2.19 ± 0.058 | 1.54 ± 0.05 | 2.14 ± 0.069 | 2 ± 0.057 |
| GKTSFFQALGVPTKIAR [RPP0] | 3.24 ± 0.1 | 3.29 ± 0.091 | 2.98 ± 0.11 | 3.26 ± 0.071 |
| GLFDSFTNGVLAVTNLL [YML031W/NDC1] | 2.64 ± 0.14 | 2.95 ± 0.22 | 2.75 ± 0.11 |  |
| GLIMLNLQPASVINNYL [NUT1] | 1.71 ± 0.063 | 1.5 ± 0.098 | 1.15 ± 0.27 | 2 ± 0.071 |
| GLKFASFIFQYYGLVID [PRP8] | 1.73 ± 0.2 | 1.27 ± 0.18 | 1.14 ± 0.27 |  |
| GLKRSQLDEFKNKYLKD [SWP82] | 3.11 ± 0.13 | 2.89 ± 0.21 | 2.89 ± 0.12 | 2.69 ± 0.17 |
| GLMKSYKIPKVMKDIYK [ESC2] | 3.15 ± 0.27 | 3.38 ± 0.12 | 2.42 ± 0.26 | 2.92 ± 0.11 |
| GLNSDAEEVRNFALTTL [ECM29] | 2.84 ± 0.14 | 3.13 ± 0.29 | 1.38 ± 0.098 | 1.62 ± 0.11 |
| GLNWLISLHENKLSGIL [ISW2] | 2.05 ± 0.056 | 2.06 ± 0.062 | 2.11 ± 0.082 | 2.31 ± 0.092 |
| GLSILFLTGQFASNKKI [YML103C/NUP188] | 2.36 ± 0.068 | 2.37 ± 0.062 | 2.68 ± 0.079 | 2.35 ± 0.052 |
| GLSMLAKLKELAEDVDD [RPC31] | 2.92 ± 0.079 | 3.31 ± 0.061 | 2.87 ± 0.078 | 2.95 ± 0.047 |
| GLSVTQKVFVRSRNGGA [DIS3] | 1.46 ± 0.071 | 1.32 ± 0.065 | 1.4 ± 0.15 | 1.62 ± 0.063 |
| GLVNPKTVQSMTQRAIQ [SWI3] | 3.25 ± 0.14 | 2.25 ± 0.14 | 2.39 ± 0.14 | 2.05 ± 0.092 |
| GMLAMASLHSKELTRIP [MED4] | 2.18 ± 0.14 | 2.37 ± 0.12 | 2.27 ± 0.2 | 1.88 ± 0.19 |
| GMNNASAGLFGSKPAGG [YGL172W/NUP49] | 3.23 ± 0.086 | 3.32 ± 0.086 | 2.96 ± 0.09 | 3.23 ± 0.053 |
| GMVSHKTARGKAALERL [RPL16A] |  |  | 3.17 ± 0.13 |  |
| GMYALRERRIHVTQEDF [RPT6] | 1.81 ± 0.074 | 1.94 ± 0.054 | 1.59 ± 0.099 | 2.49 ± 0.1 |
| GNGELYMDCLLYDLRAS [SNU114] | 2.03 ± 0.058 | 2.12 ± 0.1 | 1.91 ± 0.13 | 2.29 ± 0.077 |
| GNIFSNIGTPSFNMAQI [SNF5] | 2.58 ± 0.099 | 2.66 ± 0.093 | 3.05 ± 0.069 | 2.64 ± 0.054 |
| GNPTNISSPIVANSPNK [YDL088C/ASM4] | 1.3 ± 0.13 | 2.06 ± 0.14 |  | 1.82 ± 0.1 |
| GNPVNDANLLGAEVLIK [COR1] | 2.56 ± 0.086 | 3.02 ± 0.093 | 2.63 ± 0.075 | 2.89 ± 0.035 |

| Sequence | protein stability index (doa10∆) | protein stability index (pdr5∆) | protein stability index (san1∆) | protein stability index (ubr1∆) |
| --- | --- | --- | --- | --- |
| GNYVIIIGHNPDENKTR [RPL2A] | 2.97 ± 0.088 | 3.32 ± 0.093 | 3.12 ± 0.074 | 2.87 ± 0.082 |
| GPANNPNEFMQFKSKEV [PRP8] | 3.1 ± 0.11 | 3.31 ± 0.083 | 3.19 ± 0.044 | 3.43 ± 0.11 |
| GPIKTPVGACATSVESV [FAS2] | 1.39 ± 0.073 | 2.13 ± 0.12 | 2.15 ± 0.11 | 2.22 ± 0.077 |
| GPPYTTDEHLIFNSGKM [ISW2] | 3.13 ± 0.059 | 3.26 ± 0.058 | 3.06 ± 0.049 | 2.99 ± 0.048 |
| GPSSVHNAKNGTLDKNS [SNF2] | 2.66 ± 0.22 | 3.03 ± 0.22 |  | 2.74 ± 0.17 |
| GQGAFGNMCRGGRMFAP [RPL4A] | 3.61 ± 0.2 | 3.06 ± 0.27 | 3.23 ± 0.067 | 3.4 ± 0.11 |
| GQLGEMAKCLDNPDQGI [YCS4] | 3.13 ± 0.14 | 3.49 ± 0.12 | 3.39 ± 0.065 | 3.29 ± 0.15 |
| GQLTGIYRYKYKVMHQI [PRP8] | 2.9 ± 0.14 | 2.2 ± 0.13 | 2.91 ± 0.088 | 2.42 ± 0.081 |
| GQMAPIGTGAFDVMIDE [RPO21] | 2.29 ± 0.12 | 2.3 ± 0.13 | 2.37 ± 0.12 | 2.54 ± 0.057 |
| GQNLKDLLVNFSAGAAA [RPP1A] | 2.27 ± 0.13 | 2.18 ± 0.2 | 2.02 ± 0.21 | 2.13 ± 0.15 |
| GQQSVEGKRIAFGFVDR [RPO21] | 3.25 ± 0.2 | 3.01 ± 0.2 | 3.44 ± 0.11 | 3.52 ± 0.14 |
| GQSINDSLKKLLPQWDD [ARP9] | 2.88 ± 0.047 | 2.86 ± 0.044 | 2.74 ± 0.045 | 2.88 ± 0.04 |
| GRGTLFVRGDSKIFRFQ [RPL24A] | 1.58 ± 0.05 | 1.74 ± 0.076 | 1.95 ± 0.087 | 2.21 ± 0.065 |
| GRKYTTLGKLSTSVGWK [RPL16B] | 2.79 ± 0.1 | 1.94 ± 0.1 | 2.77 ± 0.11 | 2.64 ± 0.067 |
| GRLDRKVEIPLPNEAGR [RPT4] | 3.16 ± 0.13 | 3.27 ± 0.1 | 3.11 ± 0.065 | 3.09 ± 0.1 |
| GRLRNKSHKQTIVTGGG [RPP1] | 2.57 ± 0.093 | 2.89 ± 0.081 | 2.56 ± 0.073 | 2.92 ± 0.074 |
| GRYLLTPPDDLHPYVPS [SRB8] | 2.36 ± 0.057 | 2.41 ± 0.056 | 2.55 ± 0.061 | 2.66 ± 0.039 |
| GSAADTQAIADIVQYHL [PRE3] |  | 3.26 ± 0.19 | 2.88 ± 0.17 | 2.99 ± 0.13 |
| GSFNEMKRNCGQIITLF [RMP1] | 2.74 ± 0.064 | 2.91 ± 0.06 | 2.55 ± 0.062 | 2.87 ± 0.052 |
| GSGVDSSKLQLTKKYSF [RRP42] | 2.67 ± 0.12 | 2.8 ± 0.062 | 1.55 ± 0.12 | 2.83 ± 0.071 |
| GSHLFSIHAHGSTDVGY [PUP1] | 2.58 ± 0.078 | 3.01 ± 0.15 | 2.92 ± 0.077 | 2.02 ± 0.081 |
| GSIFTHETTFMTAMRLM [YML031W/NDC1] | 1.88 ± 0.072 | 2.53 ± 0.083 | 2.71 ± 0.065 | 2.64 ± 0.081 |
| GSLKLIELLCGLGKSAV [NAS6] |  |  | 3.08 ± 0.098 |  |
| GSLSGNSSSMEEVMRIA [ESC2] | 2.9 ± 0.074 | 2.88 ± 0.11 | 2.45 ± 0.12 | 2.73 ± 0.083 |
| GSLWVEFCDEPSVGVKT [RPB5] | 2.84 ± 0.054 | 2.86 ± 0.076 | 3 ± 0.093 | 2.92 ± 0.053 |
| GSPSLTSPQYIPSPLSS [NUT1] | 2.56 ± 0.042 | 2.52 ± 0.033 | 2.65 ± 0.037 | 2.52 ± 0.028 |
